B1: library; numbered along this chain (parent)
chain: MRKPRAAVGSGHRKQAASQEGRQKHAKNNSQAKPSACDGLARQPEEVVLQASVSSYHLFRDVAEVTAFRGSLLSWYDQEKRDLPWRRRAEDEMDLDRRAYAVWVSEVMLQQTQVATVINYYTGWMQKWPTLQDLASASLEEVNQLWAGLGYYSRGRRLQEGARKVVEELGGHMPRTAETLQQLLPGVGRYTAGAIASIAFGQATGVVDGNVARVLCRVRAIGADPSSTLVSQQLWGLAQQLVDPARPGDFNQAAMELGATVCTPQRPLCSQCPVESLCRARQRVEQEQLLASGSLSGSPDVEECAPNTGQCHLCLPPSEPWDQTLGVVNFPRKASRKPPREESSATCVLEQPGALGAQILLVQRPNSGLLAGLWEFPSVTWEPSEQLQRKALLQELQRWAGPLPATHLRHLGEVVHTFSHIKLTYQVYGLALEGQTPVTTVPPGARWLTQEEFHTAAVSTAMKKVFRVYQGQQPGTCMGSKRSQVSSPCSRKKPRMGQQVLDNFFRSHISTDAHSLNSAAQ

Variants of: B1
Assay: 8OG:A repair function score (normalized; synonymous = 0, nonsense = -1) (normalized log-likelihood score); higher = more repair activity (WT-like)
Conditions: with 8OG:A DNA repair reporter (GFP) in HEK-293 MUTYH KO cells
Summary of the method: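 GFP+ (repair) and GFP− bins of viable mCherry+ cells were collected at 72 h from MUTYH knockout HEK-293 cells bearing lentiviral MUTYH cDNA NNN codon-scan libraries in 10 pg/ml doxycycline, co-transfected with an 8OG:A GFP repair reporter and mCherry. Tile amplicons were sequenced, and per-tile Rosace fitness scores were normalized to a repair function score anchored on synonymous and nonsense distributions. Synonymous medians were set to 0 and nonsense to -1, with variants under 300 counts per million at the start removed.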
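Note: cells sorted at 72 h after reporter transfection.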

| Variant | 8OG:A repair function score |
| --- | --- |
| MRKPRAAVGSGHRKQAASQEGRQKHAKNNSQAKPSACDGLARQPEEVVLQASVSSYHLFRDVAEVTAFRGSLLSWYDQEKRDLPWRRRAEDEMDLDRRAYAVWVSEVMLQQTQVATVINYYTGWMQKWPTLQDLASASLEEVNQLWAGLGYYSRGRRLQEGARKVVEELGGHMPRTAETLQQLLPGVGRYTAGAIASIAFGQATGVVDGNVARVLCRVRAIGADPSSTLVSQQLWGLAQQLVDPARPGDFNQAAMELGATVCTPQRPLCSQCPVESLCRARQRVEQEQLLASGSLSGSPDVEECAPNTGQCHLCLPPSEPWDQTLGVVNFPRKASRKPPREESSRTCVLEQPGALGAQILLVQRPNSGLLAGLWEFPSVTWEPSEQLQRKALLQELQRWAGPLPATHLRHLGEVVHTFSHIKLTYQVYGLALEGQTPVTTVPPGARWLTQEEFHTAAVSTAMKKVFRVYQGQQPGTCMGSKRSQVSSPCSRKKPRMGQQVLDNFFRSHISTDAHSLNSAAQ [A345R] | -0.408 |
| MRKPRAAVGSGHRKQAASQEGRQKHAKNNSQAKPSACDGLARQPEEVVLQASVSSYHLFRDVAEVTAFRGSLLSWYDQEKRDLPWRRRAEDEMDLDRRAYAVWVSEVMLQQTQVATVINYYTGWMQKWPTLQDLASASLEEVNQLWAGLGYYSRGRRLQEGARKVVEELGGHMPRTAETLQQLLPGVGRYTAGAIASIAFGQATGVVDGNVARVLCRVRAIGADPSSTLVSQQLWGLAQQLVDPARPGDFNQAAMELGATVCTPQRPLCSQCPVESLCRARQRVEQEQLLASGSLSGSPDVEECAPNTGQCHLCLPPSEPWDQTLGVVNFPRKASRKPPREESSNTCVLEQPGALGAQILLVQRPNSGLLAGLWEFPSVTWEPSEQLQRKALLQELQRWAGPLPATHLRHLGEVVHTFSHIKLTYQVYGLALEGQTPVTTVPPGARWLTQEEFHTAAVSTAMKKVFRVYQGQQPGTCMGSKRSQVSSPCSRKKPRMGQQVLDNFFRSHISTDAHSLNSAAQ [A345N] | -0.356 |
| MRKPRAAVGSGHRKQAASQEGRQKHAKNNSQAKPSACDGLARQPEEVVLQASVSSYHLFRDVAEVTAFRGSLLSWYDQEKRDLPWRRRAEDEMDLDRRAYAVWVSEVMLQQTQVATVINYYTGWMQKWPTLQDLASASLEEVNQLWAGLGYYSRGRRLQEGARKVVEELGGHMPRTAETLQQLLPGVGRYTAGAIASIAFGQATGVVDGNVARVLCRVRAIGADPSSTLVSQQLWGLAQQLVDPARPGDFNQAAMELGATVCTPQRPLCSQCPVESLCRARQRVEQEQLLASGSLSGSPDVEECAPNTGQCHLCLPPSEPWDQTLGVVNFPRKASRKPPREESSVTCVLEQPGALGAQILLVQRPNSGLLAGLWEFPSVTWEPSEQLQRKALLQELQRWAGPLPATHLRHLGEVVHTFSHIKLTYQVYGLALEGQTPVTTVPPGARWLTQEEFHTAAVSTAMKKVFRVYQGQQPGTCMGSKRSQVSSPCSRKKPRMGQQVLDNFFRSHISTDAHSLNSAAQ [A345V] | 0.0157 |
| MRKPRAAVGSGHRKQAASQEGRQKHAKNNSQAKPSACDGLARQPEEVVLQASVSSYHLFRDVAEVTAFRGSLLSWYDQEKRDLPWRRRAEDEMDLDRRAYAVWVSEVMLQQTQVATVINYYTGWMQKWPTLQDLASASLEEVNQLWAGLGYYSRGRRLQEGARKVVEELGGHMPRTAETLQQLLPGVGRYTAGAIASIAFGQATGVVDGNVARVLCRVRAIGADPSSTLVSQQLWGLAQQLVDPARPGDFNQAAMELGATVCTPQRPLCSQCPVESLCRARQRVEQEQLLASGSLSGSPDVEECAPNTGQCHLCLPPSEPWDQTLGVVNFPRKASRKPPREESSPTCVLEQPGALGAQILLVQRPNSGLLAGLWEFPSVTWEPSEQLQRKALLQELQRWAGPLPATHLRHLGEVVHTFSHIKLTYQVYGLALEGQTPVTTVPPGARWLTQEEFHTAAVSTAMKKVFRVYQGQQPGTCMGSKRSQVSSPCSRKKPRMGQQVLDNFFRSHISTDAHSLNSAAQ [A345P] | -0.334 |
| MRKPRAAVGSGHRKQAASQEGRQKHAKNNSQAKPSACDGLARQPEEVVLQASVSSYHLFRDVAEVTAFRGSLLSWYDQEKRDLPWRRRAEDEMDLDRRAYAVWVSEVMLQQTQVATVINYYTGWMQKWPTLQDLASASLEEVNQLWAGLGYYSRGRRLQEGARKVVEELGGHMPRTAETLQQLLPGVGRYTAGAIASIAFGQATGVVDGNVARVLCRVRAIGADPSSTLVSQQLWGLAQQLVDPARPGDFNQAAMELGATVCTPQRPLCSQCPVESLCRARQRVEQEQLLASGSLSGSPDVEECAPNTGQCHLCLPPSEPWDQTLGVVNFPRKASRKPPREESSWTCVLEQPGALGAQILLVQRPNSGLLAGLWEFPSVTWEPSEQLQRKALLQELQRWAGPLPATHLRHLGEVVHTFSHIKLTYQVYGLALEGQTPVTTVPPGARWLTQEEFHTAAVSTAMKKVFRVYQGQQPGTCMGSKRSQVSSPCSRKKPRMGQQVLDNFFRSHISTDAHSLNSAAQ [A345W] | -0.174 |
| MRKPRAAVGSGHRKQAASQEGRQKHAKNNSQAKPSACDGLARQPEEVVLQASVSSYHLFRDVAEVTAFRGSLLSWYDQEKRDLPWRRRAEDEMDLDRRAYAVWVSEVMLQQTQVATVINYYTGWMQKWPTLQDLASASLEEVNQLWAGLGYYSRGRRLQEGARKVVEELGGHMPRTAETLQQLLPGVGRYTAGAIASIAFGQATGVVDGNVARVLCRVRAIGADPSSTLVSQQLWGLAQQLVDPARPGDFNQAAMELGATVCTPQRPLCSQCPVESLCRARQRVEQEQLLASGSLSGSPDVEECAPNTGQCHLCLPPSEPWDQTLGVVNFPRKASRKPPREESSMTCVLEQPGALGAQILLVQRPNSGLLAGLWEFPSVTWEPSEQLQRKALLQELQRWAGPLPATHLRHLGEVVHTFSHIKLTYQVYGLALEGQTPVTTVPPGARWLTQEEFHTAAVSTAMKKVFRVYQGQQPGTCMGSKRSQVSSPCSRKKPRMGQQVLDNFFRSHISTDAHSLNSAAQ [A345M] | -0.102 |
| MRKPRAAVGSGHRKQAASQEGRQKHAKNNSQAKPSACDGLARQPEEVVLQASVSSYHLFRDVAEVTAFRGSLLSWYDQEKRDLPWRRRAEDEMDLDRRAYAVWVSEVMLQQTQVATVINYYTGWMQKWPTLQDLASASLEEVNQLWAGLGYYSRGRRLQEGARKVVEELGGHMPRTAETLQQLLPGVGRYTAGAIASIAFGQATGVVDGNVARVLCRVRAIGADPSSTLVSQQLWGLAQQLVDPARPGDFNQAAMELGATVCTPQRPLCSQCPVESLCRARQRVEQEQLLASGSLSGSPDVEECAPNTGQCHLCLPPSEPWDQTLGVVNFPRKASRKPPREESSQTCVLEQPGALGAQILLVQRPNSGLLAGLWEFPSVTWEPSEQLQRKALLQELQRWAGPLPATHLRHLGEVVHTFSHIKLTYQVYGLALEGQTPVTTVPPGARWLTQEEFHTAAVSTAMKKVFRVYQGQQPGTCMGSKRSQVSSPCSRKKPRMGQQVLDNFFRSHISTDAHSLNSAAQ [A345Q] | -0.264 |
| MRKPRAAVGSGHRKQAASQEGRQKHAKNNSQAKPSACDGLARQPEEVVLQASVSSYHLFRDVAEVTAFRGSLLSWYDQEKRDLPWRRRAEDEMDLDRRAYAVWVSEVMLQQTQVATVINYYTGWMQKWPTLQDLASASLEEVNQLWAGLGYYSRGRRLQEGARKVVEELGGHMPRTAETLQQLLPGVGRYTAGAIASIAFGQATGVVDGNVARVLCRVRAIGADPSSTLVSQQLWGLAQQLVDPARPGDFNQAAMELGATVCTPQRPLCSQCPVESLCRARQRVEQEQLLASGSLSGSPDVEECAPNTGQCHLCLPPSEPWDQTLGVVNFPRKASRKPPREESSSTCVLEQPGALGAQILLVQRPNSGLLAGLWEFPSVTWEPSEQLQRKALLQELQRWAGPLPATHLRHLGEVVHTFSHIKLTYQVYGLALEGQTPVTTVPPGARWLTQEEFHTAAVSTAMKKVFRVYQGQQPGTCMGSKRSQVSSPCSRKKPRMGQQVLDNFFRSHISTDAHSLNSAAQ [A345S] | -0.148 |
| MRKPRAAVGSGHRKQAASQEGRQKHAKNNSQAKPSACDGLARQPEEVVLQASVSSYHLFRDVAEVTAFRGSLLSWYDQEKRDLPWRRRAEDEMDLDRRAYAVWVSEVMLQQTQVATVINYYTGWMQKWPTLQDLASASLEEVNQLWAGLGYYSRGRRLQEGARKVVEELGGHMPRTAETLQQLLPGVGRYTAGAIASIAFGQATGVVDGNVARVLCRVRAIGADPSSTLVSQQLWGLAQQLVDPARPGDFNQAAMELGATVCTPQRPLCSQCPVESLCRARQRVEQEQLLASGSLSGSPDVEECAPNTGQCHLCLPPSEPWDQTLGVVNFPRKASRKPPREESSYTCVLEQPGALGAQILLVQRPNSGLLAGLWEFPSVTWEPSEQLQRKALLQELQRWAGPLPATHLRHLGEVVHTFSHIKLTYQVYGLALEGQTPVTTVPPGARWLTQEEFHTAAVSTAMKKVFRVYQGQQPGTCMGSKRSQVSSPCSRKKPRMGQQVLDNFFRSHISTDAHSLNSAAQ [A345Y] | -0.126 |
| MRKPRAAVGSGHRKQAASQEGRQKHAKNNSQAKPSACDGLARQPEEVVLQASVSSYHLFRDVAEVTAFRGSLLSWYDQEKRDLPWRRRAEDEMDLDRRAYAVWVSEVMLQQTQVATVINYYTGWMQKWPTLQDLASASLEEVNQLWAGLGYYSRGRRLQEGARKVVEELGGHMPRTAETLQQLLPGVGRYTAGAIASIAFGQATGVVDGNVARVLCRVRAIGADPSSTLVSQQLWGLAQQLVDPARPGDFNQAAMELGATVCTPQRPLCSQCPVESLCRARQRVEQEQLLASGSLSGSPDVEECAPNTGQCHLCLPPSEPWDQTLGVVNFPRKASRKPPREESSTTCVLEQPGALGAQILLVQRPNSGLLAGLWEFPSVTWEPSEQLQRKALLQELQRWAGPLPATHLRHLGEVVHTFSHIKLTYQVYGLALEGQTPVTTVPPGARWLTQEEFHTAAVSTAMKKVFRVYQGQQPGTCMGSKRSQVSSPCSRKKPRMGQQVLDNFFRSHISTDAHSLNSAAQ [A345T] | -0.111 |
| MRKPRAAVGSGHRKQAASQEGRQKHAKNNSQAKPSACDGLARQPEEVVLQASVSSYHLFRDVAEVTAFRGSLLSWYDQEKRDLPWRRRAEDEMDLDRRAYAVWVSEVMLQQTQVATVINYYTGWMQKWPTLQDLASASLEEVNQLWAGLGYYSRGRRLQEGARKVVEELGGHMPRTAETLQQLLPGVGRYTAGAIASIAFGQATGVVDGNVARVLCRVRAIGADPSSTLVSQQLWGLAQQLVDPARPGDFNQAAMELGATVCTPQRPLCSQCPVESLCRARQRVEQEQLLASGSLSGSPDVEECAPNTGQCHLCLPPSEPWDQTLGVVNFPRKASRKPPREESSAACVLEQPGALGAQILLVQRPNSGLLAGLWEFPSVTWEPSEQLQRKALLQELQRWAGPLPATHLRHLGEVVHTFSHIKLTYQVYGLALEGQTPVTTVPPGARWLTQEEFHTAAVSTAMKKVFRVYQGQQPGTCMGSKRSQVSSPCSRKKPRMGQQVLDNFFRSHISTDAHSLNSAAQ [T346A] | -0.0694 |
| MRKPRAAVGSGHRKQAASQEGRQKHAKNNSQAKPSACDGLARQPEEVVLQASVSSYHLFRDVAEVTAFRGSLLSWYDQEKRDLPWRRRAEDEMDLDRRAYAVWVSEVMLQQTQVATVINYYTGWMQKWPTLQDLASASLEEVNQLWAGLGYYSRGRRLQEGARKVVEELGGHMPRTAETLQQLLPGVGRYTAGAIASIAFGQATGVVDGNVARVLCRVRAIGADPSSTLVSQQLWGLAQQLVDPARPGDFNQAAMELGATVCTPQRPLCSQCPVESLCRARQRVEQEQLLASGSLSGSPDVEECAPNTGQCHLCLPPSEPWDQTLGVVNFPRKASRKPPREESSACCVLEQPGALGAQILLVQRPNSGLLAGLWEFPSVTWEPSEQLQRKALLQELQRWAGPLPATHLRHLGEVVHTFSHIKLTYQVYGLALEGQTPVTTVPPGARWLTQEEFHTAAVSTAMKKVFRVYQGQQPGTCMGSKRSQVSSPCSRKKPRMGQQVLDNFFRSHISTDAHSLNSAAQ [T346C] | 0.0316 |

Source: the supplement of paper PMC11908140
